Laboratory results as given in patent US20130195871A1 (AbbVie / Abbott, published 2013).

Key:
[1] = molecular target: T1, ErbB3 on the cell surface (human, UniProt P21860 20-1342); test: flow cytometry on cells, 2 ug/mL, N-terminal VD
T1 construct: whole, on cells
Method: (§1) Stable cell lines overexpressing a cell-surface antigen of interest or human tumor cell lines were harvested from tissue culture flasks and resuspended in phosphate buffered saline (PBS) containing 5% fetal bovine serum (PBS/FBS). Prior to staining, human tumor cells were incubated on ice with (100 μl) human IgG at 5 μg/ml in PBS/FCS. 1-5×10⁵ cells were incubated with antibody or DVD-Ig (2 μg/mL) in PBS/FBS for 30-60 minutes on ice. […] After 30 minutes incubation on ice, cells were washed twice and resuspended in PBS/FBS. Fluorescence was measured using a Becton Dickinson FACSCalibur (Becton Dickinson, San Jose, Calif.).
(§2) The geometric mean is the n root of the multiplication product of n fluorescent signals (a1×a2×a3 . . . an). With log-transformed data the geometric mean is used to normalize the weighting of the data distribution.

EGFR on the cell surface [2] = molecular target: T2, EGFR on the cell surface (human, UniProt P00533 25-1210); test: flow cytometry on cells, 2 ug/mL, C-terminal VD
T2 construct: whole, on cells
Method: as §1, §2

EGFR on the cell surface [3] = molecular target: T2, EGFR on the cell surface; test: flow cytometry on cells, 2 ug/mL
Method: as §1, §2
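Also: cells stained for 30 to 60 min on ice.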

Row | Binder | GEO MEAN [1] | GEO MEAN (EGFR on the cell surface [2]) | GEO MEAN (EGFR on the cell surface [3])
1 | DVD2297 (bispecific antibody, DVD-Ig, outer AB062 / inner AB400) VH: QVQLQQWGAGLLKPSETLSLTCAVYGGSFSGYYWSWIRQPPGKGLEWIGEINHSGSTNYNPSLKSRVTISVETSKNQFSLKLSSVTAADTAVYYCARDKWTWYFDLWGRGTLVTVSSASTKGPEVQLVESGGGLVQPGGSLRLSCAASGFSLTNYGVHWVRQAPGKGLEWLGVGWSGGNTDYNTPFTSRLTINKDNSKNTVYLQMNSLRAEDTAVYYCARALTWYDYEFAYWGQGTLVTVSS VL: DIEMTQSPDSLAVSLGERATINCRSSQSVLYSSSNRNYLAWYQQNPGQPPKLLIYWASTRESGVPDRFSGSGSGTDFTLTISSLQAEDVAVYYCQQYYSTPRTFGQGTKVEIKRTVAAPDILLTQSPGTLSLSPGERATLSCRASQSIYTNIHWYQQKPGQAPRLLIKYASESISGIPDRFSGSGSGTDFTLTISRLEPEDFAVYYCQQNLNWPTTFGQGTKLEIK | 135 | 106 | 
2 | AB400 (antibody, V domains shown, parent antibody) VH: EVQLVESGGGLVQPGGSLRLSCAASGFSLTNYGVHWVRQAPGKGLEWLGVGWSGGNTDYNTPFTSRLTINKDNSKNTVYLQMNSLRAEDTAVYYCARALTWYDYEFAYWGQGTLVTVSS VL: DILLTQSPGTLSLSPGERATLSCRASQSIYTNIHWYQQKPGQAPRLLIKYASESISGIPDRFSGSGSGTDFTLTISRLEPEDFAVYYCQQNLNWPTTFGQGTKLEIKR |  |  | 439
